Reference: patent publication US6200577A, “Anti-herpesviral agents and assays therefor” (priority 1996, dated 2001)

Legend:
Parameters in all cases: species or system HSV-1
[1] = molecular target: T1, VP16/full-length VP22 interaction (Human herpesvirus 1, UniProt P06492); assay: Far Western analysis of peptides blocking VP16 binding to full-length VP22 (vUL49ep L-particle extract); settings: strips pre-incubated with 1 mg peptide, FIG. 8
T1 construct: Plasmid pETVP16 was used to express full-length VP16 under the control of the T7 RNA polymerase promoter; made in house; host or cells: VP16: E. coli BL21(DE3); VP22: L-particles of recombinant virus vUL49ep grown in BHK cells
Description: FIG. 8 Blocking of the interaction between VP16 and full length VP22 by pure peptides D and E. A vUL49ep L-particle extract was run on a 10% polyacrylamide gel and the proteins transferred to a nitrocellulose membrane. The blot was cut into strips, with each strip containing the equivalent of approximately 3×10^9 L-particles. Strips were pre-incubated with 1 mg of each of the following peptides: lane 2, no peptide; lane 3, peptide C; lane 4, peptide D; lane 5, peptide E. 2 μg of pure VP16 was then added to each incubation and bound VP16 was detected by LP1 antibody. Two strips were incubated with either LPl (lane 1) or 9220 antibody (lane 6), each at a dilution of 1:1000. The apparent molecular weights of VP16 (65 KDa) and tagged VP22 (40 KDa) are shown.
(§1) Following electrophoresis, proteins were electrotransferred to either Hybond or ProBlott (Applied Biosystems) membrane and the membrane was incubated in renaturation buffer (50 mM Tris-HCl, pH 8.0, 150 mM NaCl, 10% glycerol, 1 mM DTT) at 4° C. for 5-6 hours.
For membranes probed with either VP16 or VP22trunc, blocking was performed overnight as described for Western blot analysis. Probing with epitope-tagged VP22 or VP16 was performed in 20 mM Tris-HCl, pH 8.0, 250 mM NaCl for 1.5 hours at ambient temperature. Excess probe was removed by washing 4 times (10 minutes per wash) in 20 mM Tris-HCl, pH8.0, 250 mM NaCl, followed by incubation with the appropriate antibody at a dilution of 1:1000 in TTBS/1% gelatin for 1.5-2 hours. Bound antibody was detected as described for Western blot analysis.
The results presented thus far have established that peptides D and E block the interaction between VP16 and VP22trunc. The inhibitory effect of the peptides was further tested to examine whether they were capable of blocking the interaction of VP16 with full-length VP22.

[2] = molecular target: T2, VP16/VP22trunc interaction (Human herpesvirus 1, UniProt P06492); assay: ELISA of peptide inhibition of VP16 binding to VP22trunc; settings: for Inhibition of VP16 binding to VP22trunc in ELISA: D and E pure preparations, effect at 100 and 500 μg/ml, VP16 1.6 μg/ml, 160 ng VP22trunc, FIG. 9; for IC50: converted from μg/ml, maximum molarities, read-out: Molarity for 50% inhibition of VP16 binding (ELISA); for IC50 / Concentration for 50% inhibition of VP16 binding (ELISA): peptides not 100% soluble; for Concentration for 50% inhibition of VP16 binding (ELISA): pure peptide preparations, maximum values
T2 construct: Plasmid pETVP16 was used to express full-length VP16 under the control of the T7 RNA polymerase promoter; made in house; host or cells: E. coli BL21(DE3)
Description: FIG. 9 Inhibitory effect of peptides D and E on the VP22trunc-VP16 interaction in ELISAs. Microtitre plates were coated with 160 ng of VP22trunc and blocked with PBS/10% NCS. Before addition to the wells, five-fold dilutions of the peptides, ranging from 500 μg/ml to 1 g/ml, were incubated with VP16 (1.6 μg/ml). Bound VP16 was detected with LP1 at a dilution of 1:1000. The legend for the peptides added is shown to the right of the graph. Values are shown relative to those obtained in the absence of the peptide.
Dilutions of proteins in PBS were coated overnight onto flat bottomed micro-titre plates (Dynatech) at 37° C. and then blocked with either 2% BSA or 10% new-born calf serum (NCS) in PBS for 1 hour at 37° C. Specific binding of a second protein to the plate-bound protein was performed for 1.5-2 hours at ambient temperature. a Excess secondary protein was removed by washing four times with PBS, 0.3% Tween 20. Bound protein was detected by incubation for 1.5-2 hours with LP1 antibody in PBS, 1% gelatin or PBS, 2% NCS. The bound antibody was detected by incubation for 1 hour at ambient temperature with anti-mouse antibody conjugated to HRP (1:500) and visualised with Smg/ml enzyme substrate 2,2'-azino-bis(3-ethylbenzthiazoline-6-sulphonic acid) (ABTS; Sigma) in citrate-phosphate buffer containing 6 μl hydrogen peroxide in a total volume of 20 ml. Optical densities were measured on a Titertek Multiscan PLUS instrument.
To adopt a more quantitative approach, an ELISA for VP16 binding to VP22trunc was developed. Optimal conditions were determined by coating wells with various quantities of VP22trunc followed by blocking with 2% BSA. Plates were then incubated with dilutions of VP16 and the bound VP16 detected with LP1.
The studies presented above have provided strong evidence in support of peptide inhibition of the interaction between VP16 and VP22. However, quantitative analysis of the ability of peptides to block any interaction is difficult to perform by the above methods. Therefore, using the ELISA system described in Results Section 2(iii) with the exception that PBS/10% NCS was utilised as a blocking agent, the inhibitory effects of peptides D and E were examined. This modification arose due to nonspecific binding of the peptides to wells when BSA was used for blocking (data not shown).

gB/VP22trunc binding = molecular target: T3, gB/VP22trunc binding (Human herpesvirus 1, UniProt P10211); assay: Far Western analysis of peptide inhibition of GST-gB binding to VP22trunc; settings: peptide 250 μg/ml co-incubated with GST-gB 1.2 μg/ml; FIG. 12B
T3 construct: linked residues 798 to 904 of gB to the glutathione-S-transferase (GST) protein expressed by pGex2TNMCR; made in house; host or cells: GST-gB: E. coli DH5alpha; VP22trunc: E. coli BL21(DE3)
Description: (B) Inhibition of binding of GST-gB (final concentration 1.2 μg/ml)and each of the following peptides at a final concentration of 250 μg/ml: lane 1, no peptide; lane 2, peptide A; lane 3, peptide B; lane 4, peptide C; lane 5, peptide D; lane 6, peptide E; lane 7, peptide F; lane 8, peptide G; lane 9, peptide H; lane 10, peptide I; lane 11, peptide J. Bound GST-gB was detected with anti-GST antibody.
as §1
For membranes probed with GST-gB, blocking was performed overnight in PBSA containing 1% non-fat dried milk and 0.05% Tween 20 at 4° C. Membranes were then washed twice in renaturation buffer (10 min/wash) prior to incubation with fusion protein (final concentration 0.5 μg/ml) in renaturation buffer containing 1% BSA. Incubation was again performed overnight at 4° C. Following washing with renaturation buffer (four times, 10 minutes/wash) and a brief rinse with blocking buffer, the membrane was incubated with anti-GST antibody in PBSA, 1% non-fat dried milk, 0.05% Tween 20 and 1% BSA for 1 hour at ambient temperature. After four washes with PBSA, 0.05% Tween 20 (10 minutes/wash), bound antibody was detected with secondary antibody (goat anti-rabbit IgG, whole molecule; Sigma) conjugated to Horse Radish Peroxidase (HRP) by incubating at room temperature for 45 minutes. Following four further washes with PBSA, 0.05% Tween 20, the secondary antibody was visualised by enhanced chemiluminescence.
Similar to the studies performed with inhibition of binding of VP16 to VP22, peptides A to J, which span residues 18 to 144 of VP22trunc, were used to examine whether gB binding could also be prevented (FIG. 12B).

T2 sequence (P06492 whole entry): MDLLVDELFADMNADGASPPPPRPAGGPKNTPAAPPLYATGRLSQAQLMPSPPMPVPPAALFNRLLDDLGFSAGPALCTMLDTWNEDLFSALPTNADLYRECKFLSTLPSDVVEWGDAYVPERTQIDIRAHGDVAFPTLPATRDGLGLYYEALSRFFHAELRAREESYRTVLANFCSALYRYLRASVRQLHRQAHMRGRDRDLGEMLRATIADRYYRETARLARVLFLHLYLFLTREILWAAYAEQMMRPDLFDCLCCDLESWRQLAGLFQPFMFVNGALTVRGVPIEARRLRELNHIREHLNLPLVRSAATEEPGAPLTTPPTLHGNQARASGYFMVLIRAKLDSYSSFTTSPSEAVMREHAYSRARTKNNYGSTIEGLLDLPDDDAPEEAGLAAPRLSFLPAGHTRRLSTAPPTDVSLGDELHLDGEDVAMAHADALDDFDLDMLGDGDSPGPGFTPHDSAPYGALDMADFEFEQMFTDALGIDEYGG
T1 sequence (P06492 whole entry): as above
T3 sequence (P10211 798-904): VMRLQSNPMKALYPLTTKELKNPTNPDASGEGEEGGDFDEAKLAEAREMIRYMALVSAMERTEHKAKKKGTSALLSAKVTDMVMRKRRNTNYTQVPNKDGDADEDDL

Sequence	Blocking of VP16 binding to full-length VP22 (Far Western) [1]	Inhibition of VP16 binding to VP22trunc in ELISA [2]	IC50 [2]	Concentration for 50% inhibition of VP16 binding (ELISA) [2]	Inhibition of GST-gB binding to VP22trunc (Far Western) (gB/VP22trunc binding)
CAAVGRLAAMHARMAAVQLW [Peptide E]	completely blocks binding of VP16 to VP22	could inhibit binding of VP16 to VP22trunc	44.1 µM	85.7 µg/mL	completely inhibited binding of gB
FSTAPPNPDAPWTPRVAGFN [Peptide C]	does not hinder the interaction	neither peptides B, C nor F had any effect	–	–	–
TPRVAGFNKRVFCAAVGRLA [Peptide D]	completely blocks binding of VP16 to VP22	could inhibit binding of VP16 to VP22trunc	99.7 µM	212.5 µg/mL	completely inhibited binding of gB
